* marks the point of attachment. CONH‑phenylbutyl = C-terminal alpha-ketoamide warhead with phenylbutyl on the amide nitrogen, O=C(NCCCCc1ccccc1)*; B(OH)2 = C-terminal boronate warhead, OB(O)*
What was measured:
[1] = target: T1, E. coli GlpG consisting of residues 87-276 (ΔN-GlpG) (E. coli, UniProt P09391 87-276); experiment: crystal structure
T1 sequence (looked up): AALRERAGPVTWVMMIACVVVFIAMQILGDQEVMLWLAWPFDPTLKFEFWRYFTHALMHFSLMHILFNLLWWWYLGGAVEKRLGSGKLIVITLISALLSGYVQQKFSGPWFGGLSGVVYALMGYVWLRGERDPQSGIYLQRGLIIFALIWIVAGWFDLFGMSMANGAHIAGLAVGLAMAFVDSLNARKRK

[2] = target: P. falciparum rhomboid protease PfROM4 (HA-tagged) (P. falciparum); experiment: cell-based or functional assay

B1: rhomboid-inhibiting boronate (RiBn), Ac-KRFRSMQYSA-B(OH)2 (peptide)
peptide: Ac-KRFRSMQYSA-{B(OH)2}
SMILES: CSCC[C@H](NC(=O)[C@H](CO)NC(=O)[C@H](CCCNC(=N)N)NC(=O)[C@H](Cc1ccccc1)NC(=O)[C@H](CCCNC(=N)N)NC(=O)[C@H](CCCCN)NC(C)=O)C(=O)N[C@@H](CCC(N)=O)C(=O)N[C@@H](Cc1ccc(O)cc1)C(=O)N[C@@H](CO)C(=O)N[C@@H](C)C(=O)B(O)O
**Q.** Does B1 bind [1]?
**A.** binds

B2: rhomboid-inhibiting ketoamide (RiKa), Ac-RVWHA-CONH-phenylbutyl (peptide)
peptide: Ac-RVWHA-{CONH‑phenylbutyl}
**Q.** How did the “EC50 of inhibition of EBA175 cleavage by PfROM4 in HEK293T cells” value [2] turn out when B2 was run?
**A.** 0.055 µM

**Q.** Does B2 bind [1]?
**A.** binds

— article PMC7680425 (Cell chemical biology, 2020)
